First the molecules themselves.
B1: MYBL2 (parent)
chain: FSPSQFLNFWNKQDTLELESPSLT
B2: WDFY1 (parent)
chain: FWNIKQMWDTKTLGLRQHHCRKCG
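Also: lentivirally expressed fusions sorted by FACS into six bins by GFP to DsRed ratio, PSI derived from sequencing read proportions per bin multiplied by bin number.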

One data set covers variants of B1. The data set can be described thus: protein stability index of a GFP-peptide fusion (GPS, HEK-293T) (PSI 1-6); higher = more stable. The note with it: c terminus: a fixed tail appended.
For the variant FSPSQFLNFWNKQDTLELESPSLP [T24P], the protein stability index turned out to be 3.08.
The same measure, in the same setting: to FSPSQFLNFWNKQDTLELESPSLS [T24S] belongs 2.36; to FSPSQFLNFWNKQDTLELESPSLR [T24R], 3.41.
The same measure, in the same setting: to FSPSQFLNFWNKQDTLELESPSLY [T24Y] belongs 2.73; to FSPSQFLNFWNKQDTLELESPSLL [T24L], 2.52.
With FSPSQFLNFWNKQDTLELESPSLW [T24W], the protein stability index was determined as 2.86.
Still for that read-out and setting: next, FSPSQFLNFWNKQDTLELESPSLE [T24E]: 2.34.
Still for that read-out and setting: to FSPSQFLNFWNKQDTLELESPSLA [T24A] belongs 3.17; to FSPSQFLNFWNKQDTLELESPSLM [T24M], 2.65.
The same measure, in the same setting: to FSPSQFLNFWNKQDTLELESPSLI [T24I] belongs 2.2; to FSPSQFLNFWNKQDTLELESPSLK [T24K], 3.62.
With FSPSQFLNFWNKQDTLELESPSLN [T24N], the protein stability index stood at 2.1.
Still for that read-out and setting: to FSPSQFLNFWNKQDTLELESPSLC [T24C] belongs 3.38; to FSPSQFLNFWNKQDTLERESPSLT [L18R], 2.95; to FSPSQFLNFWNKQDTLEPESPSLT [L18P], 2.1.
Same read-out and setting: to FSPSQFLNFWNKQDTLETESPSLT [L18T] belongs 3.04.
The same measure, in the same setting: next, FSPSQFLNFWNKQDTLEVESPSLT [L18V]: 3.28; FSPSQFLNFWNKQDTLEYESPSLT [L18Y]: 3.16; FSPSQFLNFWNKQDTLESESPSLT [L18S]: 1.84.
Consider FSPSQFLNFWNKQDTLEQESPSLT [L18Q], for which the protein stability index came to 3.72.
In the case of FSPSQFLNFWNKQDTLEWESPSLT [L18W], the protein stability index came to 5.25.
Still for that read-out and setting: to FSPSQFLNFWNKQDTLELESPSET [L23E] belongs 2.26.
Take FSPSQFLNFWNKQDTLELESPSST [L23S]: the protein stability index amounted to 2.13.
Still for that read-out and setting: next, FSPSQFLNFWNKQDTLELESPSFT [L23F]: 3.38.
For FSPSQFLNFWNKQDTLELESPSDT [L23D], the protein stability index worked out at 3.49.
Same read-out and setting: next, FSPSQFLNFWNKQDTLELESPSGT [L23G]: 2.27; FSPSQFLNFWNKQDTLELESPSHT [L23H]: 2.79.
Same read-out and setting: next, FSPSQFLNFWNKQDTLELESPSRT [L23R]: 2.97; FSPSQFLNFWNKQDTLELESPSCT [L23C]: 2.71.
Consider FSPSQFLNFWNKQDTLELESPSIT [L23I], for which the protein stability index is 4.19.
Still for that read-out and setting: to FSPSQFLNFWNKQDTLELESPSMT [L23M] belongs 2.41; to FSPSQFLNFWNKQDTLELESPSNT [L23N], 2.65; to FSPSQFLNFWNKQDTLELESPSVT [L23V], 2.91.
On the same count and under the same terms, next, FSPSQFLNFWNKQDTLELESPSAT [L23A]: 2.08.
The same measure, in the same setting: next, FSPSQFLNFWNKQDTLELESNSLT [P21N]: 3.41; FSPSQFLNFWNKQDTLELESISLT [P21I]: 3.74.
On to FSPSQFLNFWNKQDTLELESESLT [P21E], for which the protein stability index worked out at 2.64.
Regarding FSPSQFLNFWNKQDTLELESYSLT [P21Y], the protein stability index was determined as 2.69.
As to FSPSQFLNFWNKQDTLELESDSLT [P21D], the protein stability index was 2.2.
With FSPSQFLNFWNKQDTLELESVSLT [P21V], the protein stability index was found to be 2.53.
Still for that read-out and setting: next, FSPSQFLNFWNKQDTLELESGSLT [P21G]: 3.5.
On the same count and under the same terms, to FSPSQFLNFWNKQDTLELESKSLT [P21K] belongs 3.01.
Still for that read-out and setting: next, FSPSQFLNFWNKQDTLELESRSLT [P21R]: 2.36; FSPSQFLNFWNKQDTLELESMSLT [P21M]: 3.16.
Regarding FSPSQFLNFWNKQDTLELESFSLT [P21F], the protein stability index was determined as 3.56.
Still for that read-out and setting: next, FSPSQFLNFWNKQDTLELESTSLT [P21T]: 2.36.
Still for that read-out and setting: to FSPSQFLNFWNKQDTLELESWSLT [P21W] belongs 3.86; to FSPSQFLNFWNKQDTLELESSSLT [P21S], 2.09; to FSPSQFLNFWNKQDTLELESLSLT [P21L], 3.37.
On the same count and under the same terms, next, FSPSQFLNFWNKQDTLELESQSLT [P21Q]: 2.56.
For FSPSQFLNFWNKQDTLELESCSLT [P21C], the protein stability index was determined as 2.77.
In the case of FSPSQFLNFWNKQDTLELERPSLT [S20R], the protein stability index came out at 2.26.
The same measure, in the same setting: to FSPSQFLNFWNKQDTLELEIPSLT [S20I] belongs 2.75.
Same read-out and setting: to FSPSQFLNFWNKQDTLELEPPSLT [S20P] belongs 1.65; to FSPSQFLNFWNKQDTLELECPSLT [S20C], 2.08; to FSPSQFLNFWNKQDTLELEKPSLT [S20K], 2.35.
The same measure, in the same setting: to FSPSQFLNFWNKQDTLELELPSLT [S20L] belongs 1.89; to FSPSQFLNFWNKQDTLELEEPSLT [S20E], 1.23.
As for FSPSQFLNFWNKQDTLELEWPSLT [S20W], the protein stability index stood at 2.37.
On the same count and under the same terms, next, FSPSQFLNFWNKQDTLELETPSLT [S20T]: 2.83; FSPSQFLNFWNKQDTLELEMPSLT [S20M]: 3.66; FSPSQFLNFWNKQDTLELEGPSLT [S20G]: 2.84.
For FSPSQFLNFWNKQDTLELEDPSLT [S20D], the protein stability index turned out to be 2.62.
The same measure, in the same setting: to FSPSQFLNFWNKQDTLELEFPSLT [S20F] belongs 2.57; to FSPSQFLNFWNKQDTLELEQPSLT [S20Q], 3.9; to FSPSQFLNFWNKQDTLELEVPSLT [S20V], 2.31.
Still for that read-out and setting: to FSPSQFLNFWNKQDTLELASPSLT [E19A] belongs 2.63; to FSPSQFLNFWNKQDTLELDSPSLT [E19D], 3.09.
Still for that read-out and setting: next, FSPSQFLNFWNKQDTLELYSPSLT [E19Y]: 2.11; FSPSQFLNFWNKQDTLELWSPSLT [E19W]: 2.64; FSPSQFLNFWNKQDTLELHSPSLT [E19H]: 2.88.
In the case of FSPSQFLNFWNKQDTLELVSPSLT [E19V], the protein stability index is 2.8.
Same read-out and setting: to FSPSQFLNFWNKQDTLELRSPSLT [E19R] belongs 2.75.
Same read-out and setting: to FSPSQFLNFWNKQDTLELLSPSLT [E19L] belongs 4.26.
Take FSPSQFLNFWNKQDTLELNSPSLT [E19N]: the protein stability index worked out at 3.12.
The same measure, in the same setting: to FSPSQFLNFWNKQDTLELPSPSLT [E19P] belongs 2.86; to FSPSQFLNFWNKQDTLELFSPSLT [E19F], 2.58.
Still for that read-out and setting: next, FSPSQFLNFWNKQDTLELSSPSLT [E19S]: 2.07; FSPSQFLNFWNKQDTLELISPSLT [E19I]: 2.94.
Same read-out and setting: to FSPSQFLNFWNKQDTLELGSPSLT [E19G] belongs 1.66; to FSPSQFLNFWNKQDTLELCSPSLT [E19C], 3.63.
Regarding FSPSQFLNFWNKQDTLELTSPSLT [E19T], the protein stability index amounted to 2.39.
Same read-out and setting: next, FSPSQFLNFWNKQDTLELESPKLT [S22K]: 3.1; FSPSQFLNFWNKQDTLELESPNLT [S22N]: 3.17.
On the same count and under the same terms, to FSPSQFLNFWNKQDTLELESPILT [S22I] belongs 2.72; to FSPSQFLNFWNKQDTLELESPHLT [S22H], 2.56; to FSPSQFLNFWNKQDTLELESPPLT [S22P], 1.89.
Regarding FSPSQFLNFWNKQDTLELESPTLT [S22T], the protein stability index turned out to be 2.82.
Same read-out and setting: to FSPSQFLNFWNKQDTLELESPYLT [S22Y] belongs 2.61.
Still for that read-out and setting: next, FSPSQFLNFWNKQDTLELESPVLT [S22V]: 2.95.
For the variant FSPSQFLNFWNKQDTLELESPCLT [S22C], the protein stability index was 4.69.
Consider FSPSQFLNFWNKQDTLELESPWLT [S22W], for which the protein stability index worked out at 3.
Same read-out and setting: to FSPSQFLNFWNKQDTLELESPFLT [S22F] belongs 3.27.

The next data set covers variants of B2. The data set is described as above. The settings on record: c terminus: a fixed tail appended.
For the variant FWNITQMWDTKTLGLRQHHCRKCG [K5T], the protein stability index is 1.97.
